Molecular target: Fas receptor (CD95) on mouse bone marrow cells (mouse) (UniProt P25446)
Test: cell-based or functional assay

Chain of Fas receptor (CD95) on mouse bone marrow cells (mouse) (P25446 22-327): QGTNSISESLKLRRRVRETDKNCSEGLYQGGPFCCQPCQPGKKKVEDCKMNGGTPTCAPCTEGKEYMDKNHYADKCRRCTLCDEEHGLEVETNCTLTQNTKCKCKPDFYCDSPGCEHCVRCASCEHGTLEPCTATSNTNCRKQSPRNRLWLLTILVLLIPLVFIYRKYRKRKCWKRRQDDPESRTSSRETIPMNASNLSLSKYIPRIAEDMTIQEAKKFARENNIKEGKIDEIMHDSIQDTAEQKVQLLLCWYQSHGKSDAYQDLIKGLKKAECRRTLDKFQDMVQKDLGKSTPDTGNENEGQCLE
Chain of streptavidin-FasL chimeric protein (P22629 37-163, change not shown): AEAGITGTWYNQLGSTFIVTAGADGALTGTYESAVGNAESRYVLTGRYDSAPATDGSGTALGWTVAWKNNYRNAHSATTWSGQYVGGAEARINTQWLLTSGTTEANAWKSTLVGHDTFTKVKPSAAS

clonogenic activity of STR cells at 500 ng/ml FasL protein: 26 % increase | clonogenic activity of STR cells with FasL and inhibition of caspase-3 (DEVD): 75 % increase | clonogenic activity of lin- BMC (CFU assay) (% stimulation at ~500 ng/ml FasL): 45
Substance: streptavidin-FasL chimeric protein (from UniProt P22629 37-163) (ligand)
apoptotic death of wBMC after 24 hours with FasL protein (annexin-V, 7AAD) (% of the cells): 40
